Measured values from patent US8546337B2, “Self-assembling peptide nanoparticles useful as vaccines” (Alpha-O-Peptides AG, priority 2008, dated 2013).

Legend:
[1] = system: DR1, DR2, DR4, DR5, DRw6, DR7 and DR9 molecules; conditions: cited from earlier work
[2] = analytical ultracentrifugation of SAPN; assay type: physicochemical; conditions: for MW / No. of monomers: SAPN
Method: Three conditions were tested for assembling nanoparticles from the monomeric building block SEQ ID NO:33. The molecular weight (MW) of the SAPN was assessed by analytical ultracentrifugation: The peptide was dissolved at 0.42 mg/ml, 0.34 mg/ml, and 0.21 mg/ml, in 150 mM NaCl, 20 mM Tris, pH 7.5. The measured MW corresponds to SAPN composed of about 330 monomers, i.e. a nanoparticle with more monomers than needed for a regular polyhedron with 60 asymmetric units (Table 23).

[3] = assay type: physicochemical; conditions: DLS at pH 6.5
[4] = peptide 0.21 mg/ml in 150 mM NaCl, 20 mM Tris, pH 7.5
[5] = peptide 0.34 mg/ml in 150 mM NaCl, 20 mM Tris, pH 7.5
[6] = peptide 0.42 mg/ml in 150 mM NaCl, 20 mM Tris, pH 7.5

## CS.T3 peptide: 17 C-terminal amino acids of P. falciparum circum sporozoite protein CS with two cysteines replaced by alanines (RLLLRLEELERRLEELEKKIAKMEKASSVFNVVLAALRRRLEELAR; trimeric coiled coil with P. falciparum HTL epitope)
[1]
  pan DR activity in cell proliferation assay: stimulatory

B1: MGHHHHHHGDWKWDGGLVPRGSDEMLRELQETNAALQDVRELLRQQVKQITFLRALLMGGRLLARLEELERRLEELERRLEELERAINTVDLELAALRRRLEELAR (protein)
chain: MGHHHHHHGDWKWDGGLVPRGSDEMLRELQETNAALQDVRELLRQQVKQITFLRALLMGGRLLARLEELERRLEELERRLEELERAINTVDLELAALRRRLEELAR
modifications: building block comprising His-tag, COMP and P5c6
[2]; analytical ultracentrifugation
  molecular weight of the SAPN: about 4 MD
[2]; from measured MW, 150 mM NaCl, 20 mM Tris, pH 7.5
  number of monomers (peptide chains) per SAPN: about 330

B2: MGHHHHHHASWKWDGGLVPRGSWQTWNAKWDQWSNDWNAWRSDWQAWKDDWAFWRALWMGGRLLLRLEELERRLEELEKKIAKMEKASSVFNVVLAALRRRLEELARGGSGANANPNANPNANPNANP (protein)
chain: MGHHHHHHASWKWDGGLVPRGSWQTWNAKWDQWSNDWNAWRSDWQAWKDDWAFWRALWMGGRLLLRLEELERRLEELEKKIAKMEKASSVFNVVLAALRRRLEELARGGSGANANPNANPNANPNANP
modifications: pentameric coiled coil with tryptophane zipper and trimeric coiled coil with P. falciparum HTL epitope
[3]
  particle diameter: 44.6 nm
  polydispersity index: 19.6%

B3: SEQ ID NO: 33 (protein)
chain: B1 chain
modifications: building block comprising His-tag, COMP and P5c6
[2]; [4]
  MW: 4066 kDa
  No. of monomers: 323
[2]; [5]
  MW: 4128 kDa
  No. of monomers: 328
[2]; [6]
  MW: 4331 kDa
  No. of monomers: 344
